Data taken from PMC5633104 (The Journal of Biological Chemistry, 2017).
Values belong to the molecule of their own block, whether it stands above or below them.

Experiments:
[1] = target: His-tagged β-catenin–WT, tyrosine-phosphorylated form (P–β-catenin) (UniProt P35222); test: ELISA; called a pairwise binding assay, done as in refs. 19, 20; by the legends a β-catenin-coated 96-well microtiter plate with Jak3 added, optical density read; Kd by Hyperbol-fit (MicroCal Origin)
Hif1α = Hif1α (UniProt Q16665); test: co-IP and immunoblot; settings: reference: wild type, EGF + IL-2; sites Y30,Y64,Y86
[2] = target: T1, Autophosphorylated GST-tagged Jak3-WT (P-Jak3-WT) (UniProt P52333 1-1124, autophosphorylated on tyrosine (sites not given)); test: ELISA; called a pairwise binding assay, done as in refs. 19, 20; by the legends a β-catenin-coated 96-well microtiter plate with Jak3 added, optical density read; Kd by Hyperbol-fit (MicroCal Origin); settings: both partners purified
T1 construct: also called phosphorylated Jak3; source: E. coli BL-21, purified, autophosphorylated
T1 sequence (looked up): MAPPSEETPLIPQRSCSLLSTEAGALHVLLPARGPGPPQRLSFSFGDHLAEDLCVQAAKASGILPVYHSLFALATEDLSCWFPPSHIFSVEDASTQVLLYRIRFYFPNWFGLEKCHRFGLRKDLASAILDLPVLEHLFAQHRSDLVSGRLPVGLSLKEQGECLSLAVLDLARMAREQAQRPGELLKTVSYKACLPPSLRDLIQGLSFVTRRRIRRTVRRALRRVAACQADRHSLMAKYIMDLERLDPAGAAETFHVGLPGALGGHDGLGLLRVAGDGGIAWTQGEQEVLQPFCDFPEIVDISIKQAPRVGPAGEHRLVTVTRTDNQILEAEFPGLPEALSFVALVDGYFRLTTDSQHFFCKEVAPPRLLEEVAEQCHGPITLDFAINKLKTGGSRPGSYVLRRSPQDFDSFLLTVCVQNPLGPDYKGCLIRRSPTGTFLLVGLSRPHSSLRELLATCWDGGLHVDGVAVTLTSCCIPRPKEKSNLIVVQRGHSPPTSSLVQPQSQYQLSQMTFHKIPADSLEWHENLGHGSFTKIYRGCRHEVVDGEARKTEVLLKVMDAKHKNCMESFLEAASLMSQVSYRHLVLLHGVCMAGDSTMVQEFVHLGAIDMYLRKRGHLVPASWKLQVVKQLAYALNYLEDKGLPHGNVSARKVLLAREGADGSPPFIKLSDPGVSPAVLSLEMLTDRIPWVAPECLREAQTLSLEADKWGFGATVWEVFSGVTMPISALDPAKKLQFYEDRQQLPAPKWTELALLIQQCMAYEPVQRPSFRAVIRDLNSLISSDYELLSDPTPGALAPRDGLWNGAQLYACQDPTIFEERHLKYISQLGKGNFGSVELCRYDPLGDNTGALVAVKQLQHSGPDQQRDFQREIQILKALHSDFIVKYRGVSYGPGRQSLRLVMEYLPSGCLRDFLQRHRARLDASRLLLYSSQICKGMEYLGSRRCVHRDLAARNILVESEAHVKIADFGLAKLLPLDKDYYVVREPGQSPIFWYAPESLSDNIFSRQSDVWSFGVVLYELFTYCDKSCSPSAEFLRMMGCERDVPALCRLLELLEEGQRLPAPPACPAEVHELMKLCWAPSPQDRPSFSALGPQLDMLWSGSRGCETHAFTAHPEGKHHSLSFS

fold decrease of the interaction against Jak3-WT [1]: > 4 fold
Molecule: Jak3 with the kinase domain deleted (domain or fragment)

binding against the reference (Hif1α): stronger
Molecule: β-catenin (from UniProt P35222) Y30F,Y64F,Y86F, EGF + IL-2

Kd [2]: 280 nM
B1: His-tagged β-catenin–WT, tyrosine-phosphorylated form (P–β-catenin) (natural protein, UniProt P35222 1-781, looked up)
chain: MATQADLMELDMAMEPDRKAAVSHWQQQSYLDSGIHSGATTTAPSLSGKGNPEEEDVDTSQVLYEWEQGFSQSFTQEQVADIDGQYAMTRAQRVRAAMFPETLDEGMQIPSTQFDAAHPTNVQRLAEPSQMLKHAVVNLINYQDDAELATRAIPELTKLLNDEDQVVVNKAAVMVHQLSKKEASRHAIMRSPQMVSAIVRTMQNTNDVETARCTAGTLHNLSHHREGLLAIFKSGGIPALVKMLGSPVDSVLFYAITTLHNLLLHQEGAKMAVRLAGGLQKMVALLNKTNVKFLAITTDCLQILAYGNQESKLIILASGGPQALVNIMRTYTYEKLLWTTSRVLKVLSVCSSNKPAIVEAGGMQALGLHLTDPSQRLVQNCLWTLRNLSDAATKQEGMEGLLGTLVQLLGSDDINVVTCAAGILSNLTCNNYKNKMMVCQVGGIEALVRTVLRAGDREDITEPAICALRHLTSRHQEAEMAQNAVRLHYGLPVVVKLLHPPSHWPLIKATVGLIRNLALCPANHAPLREQGAIPRLVQLLVRAHQDTQRRTSMGGTQQQFVEGVRMEEIVEGCTGALHILARDVHNRIVIRGLNTIPLFVQLLYSPIENIQRVAAGVLCELAQDKEAAEAIEAEGATAPLTELLHSRNEGVATYAAAVLFRMSEDKPQDYKKRLSVELTSSLFRTEPMAWNETADLGLDIGAQGEPLGYRQDDPSYRSFHSGGYGQDALGMDPMMEHEMGGHHPGADYPVDGLPDLGHAQDLMDGLPPGDSNQLAWFDTDL
modifications: tyrosine-phosphorylated (made in TKX1; sites not stated)
notes: β-catenin, wild type, full-length cDNA; also called phosphorylated β-catenin; source: E. coli TKX1, purified
